Laboratory results: PMC6447637

How the values were obtained:
[1] = target: NaV1.4 CTerm Long (residues 1599–1764), freed of CaM for ITC (human) (UniProt P35499); assay: ITC; Ca2+-saturating: CTerm (2–25 µM) in the sample cell, CaM, CaM12 or CaM34 (30–1000 µM) as titrant; 20 mM MOPS, 150 mM NaCl, 1 mM MgCl2, 50 µM EGTA with 1 mM CaCl2; VP-ITC, single binding site fit, one replicate
[2] = target: NaV1.4 CTerm Short (residues 1599–1754), freed of CaM for ITC (human) (UniProt P35499); assay: as above
[3] = target: NaV1.5 CTerm Long (not stated (human or rat cDNA cloned)); assay: as above
[4] = target: NaV1.5 CTerm Long (not stated (human or rat cDNA cloned)); assay: as above; remark: listed apart in the source
[5] = target: NaV1.5 CTerm Long (not stated (human or rat cDNA cloned)); assay: ITC; Ca2+-free: CTerm (2–25 µM) in the sample cell, CaM (30–1000 µM) as titrant; 20 mM MOPS, 150 mM NaCl, 1 mM MgCl2, 50 µM EGTA; VP-ITC, single binding site fit, one replicate

Kd [1] [nM] | Kd [2] [nM] | Substance | Kd [3] [nM] | Kd [4] [nM] | Kd [5] [nM]
121 | 282 | CaM34 (D93A, D129A; C lobe Ca^2+ binding disabled) (natural protein) | 90 |  | 
 |  | calmodulin (full-length mammalian calmodulin, R. norvegicus CALM2) (from UniProt P0DP30 1-149) (natural protein) | 89 | 70 | 48
154 | 156 | CaM12 (D20A, D56A; N lobe Ca^2+ binding disabled) (natural protein) | 3600 |  | 
